Where a chain is given by its changes, count along the chain named. Numbers in names are those of the source.
What was measured:
[1] = target: His-C3d N1134A (human) (UniProt P01024); test: SPR BIAcore T200, biotinylated ISG65-Avi immobilised, C3d N1134A as analyte
[2] = target: His-C3d N1134A (human) (UniProt P01024); test: SPR, relative to wild type C3d
[3] = target: His-C3d N1134A (human) (UniProt P01024); test: SPR BIAcore T200, biotinylated ISG65-Avi immobilised, C3d N1134A as analyte; koff1
[4] = target: His-C3d N1134A (human) (UniProt P01024); test: SPR BIAcore T200, biotinylated ISG65-Avi immobilised, C3d N1134A as analyte; kon1
[5] = target: T1, C3b (human complement C3b) (human, UniProt P01024 23-667; P01024 749-1663); test: cell-based or functional assay
[6] = target: T2, His-C3d-Avi, biotinylated (human complement C3d with N-terminal His-tag and C-terminal Avi-tag) (human, UniProt P01024 996-1303, site-specific biotinylation of the C-terminal Avi-tag); test: SPR BIAcore T200, biotinylated C3d-Avi immobilised, ISG65 as analyte; kon1
T2 construct: domain: C3d; SPR ligand for the ISG65 mutants; not shown: N-terminal His-tag (pET15b); C-terminal Avi-tag

[7] = target: T2, His-C3d-Avi, biotinylated (human …); test: SPR BIAcore T200, biotinylated C3d-Avi immobilised, ISG65 as analyte
[8] = target: T2, His-C3d-Avi, biotinylated (human …); test: SPR BIAcore T200, biotinylated C3d-Avi immobilised, ISG65 as analyte; koff1
[9] = target: T3, Native human complement C3 (human, UniProt P01024 23-667; P01024 672-1663); test: SPR BIAcore T200, biotinylated ISG65-Avi immobilised, native C3 as analyte; koff1; koff1, first step of the two-step fit
T3 construct: mature; also called native C3; human C3

[10] = target: T4, C3 (H2O) (human complement C3 with hydrolysed thioester) (human, UniProt P01024 23-667; P01024 672-1663); test: SPR BIAcore T200, biotinylated ISG65-Avi immobilised, C3 (H2O) as analyte
T4 construct: mature

[11] = target: T5, C3c (fragment of human complement C3) (human, UniProt P01024 23-667; P01024 749-954; P01024 1321-1663); test: SPR, biotinylated ISG65 immobilised, C3c as analyte
T5 construct: domain: C3c

[12] = target: T1, C3b (human complement C3b); test: SPR BIAcore T200, biotinylated ISG65-Avi immobilised, C3b as analyte; koff1
[13] = target: T6, His-C3d (recombinant human complement C3d, wild type) (human, UniProt P01024 996-1303); test: SPR BIAcore T200, biotinylated ISG65-Avi immobilised, C3d Wt as analyte; kon1
T6 construct: domain: C3d; Produced in E. coli; also called C3d Wt; TED; not shown: His-tag

[14] = target: T4, C3 (H2O) (human complement C3 with …); test: SPR BIAcore T200, biotinylated ISG65-Avi immobilised, C3 (H2O) as analyte; koff1
[15] = target: T1, C3b (human complement C3b); test: SPR BIAcore T200, biotinylated ISG65-Avi immobilised, C3b as analyte
[16] = target: T3, Native human complement C3; test: SPR BIAcore T200, biotinylated ISG65-Avi immobilised, native C3 as analyte; kon1; kon1, first step of the two-step fit
[17] = target: T3, Native human complement C3; test: SPR BIAcore T200, biotinylated ISG65-Avi immobilised, native C3 as analyte; overall KD of a two-step fit (kon1, kon2, koff1, koff2)
[18] = target: T6, His-C3d (recombinant human complement …); test: SPR BIAcore T200, biotinylated ISG65-Avi immobilised, C3d Wt as analyte; koff1
[19] = target: T7, C3a (ANA domain of human complement C3, released) (human, UniProt P01024 672-748); test: SPR BIAcore T200, biotinylated ISG65-Avi immobilised, C3a as analyte
T7 construct: domain: C3a

[20] = target: T1, C3b (human complement C3b); test: SPR BIAcore T200, biotinylated ISG65-Avi immobilised, C3b as analyte; kon1
[21] = target: T8, His-C3d L1109A (human, UniProt P01024 996-1303); test: SPR BIAcore T200, biotinylated ISG65-Avi immobilised, C3d L1109A as analyte
T8 construct: domain: C3d; not shown: His-tag

[22] = target: T4, C3 (H2O) (human complement C3 with …); test: SPR BIAcore T200, biotinylated ISG65-Avi immobilised, C3 (H2O) as analyte; kon1
[23] = target: T8, His-C3d L1109A; test: SPR, relative to wild type C3d
[24] = target: T9, His-C3d E1110A (human, UniProt P01024 996-1303); test: SPR, relative to wild type C3d
T9 construct: domain: C3d; not shown: His-tag

[25] = target: T6, His-C3d (recombinant human complement …); test: SPR, relative to wild type C3d
[26] = target: T6, His-C3d (recombinant human complement …); test: SPR BIAcore T200, biotinylated ISG65-Avi immobilised, C3d Wt as analyte
[27] = target: T2, His-C3d-Avi, biotinylated (human …); test: SPR BIAcore T200, biotinylated C3d-Avi immobilised, ISG65 mutant as analyte; koff1
[28] = target: T2, His-C3d-Avi, biotinylated (human …); test: SPR BIAcore T200, biotinylated C3d-Avi immobilised, ISG65 mutant as analyte
[29] = target: T2, His-C3d-Avi, biotinylated (human …); test: SPR BIAcore T200, biotinylated C3d-Avi immobilised, ISG65 mutant as analyte; kon1
[30] = target: T2, His-C3d-Avi, biotinylated (human …); test: SPR, relative to wild type ISG65
[31] = target: T2, His-C3d-Avi, biotinylated (human …); test: SPR BIAcore T200, biotinylated C3d-Avi immobilised, ISG65 mutant as analyte; overall KD of a two-step fit (kon1, kon2, koff1, koff2)
[32] = target: T2, His-C3d-Avi, biotinylated (human …); test: SPR BIAcore T200, biotinylated C3d-Avi immobilised, ISG65 mutant as analyte; kon1; kon1, first step of the two-step fit
[33] = target: T2, His-C3d-Avi, biotinylated (human …); test: SPR BIAcore T200, biotinylated C3d-Avi immobilised, ISG65 mutant as analyte; koff1; koff1, first step of the two-step fit

T4 sequence (P01024 23-667 limits assumed, chain 1 of 2): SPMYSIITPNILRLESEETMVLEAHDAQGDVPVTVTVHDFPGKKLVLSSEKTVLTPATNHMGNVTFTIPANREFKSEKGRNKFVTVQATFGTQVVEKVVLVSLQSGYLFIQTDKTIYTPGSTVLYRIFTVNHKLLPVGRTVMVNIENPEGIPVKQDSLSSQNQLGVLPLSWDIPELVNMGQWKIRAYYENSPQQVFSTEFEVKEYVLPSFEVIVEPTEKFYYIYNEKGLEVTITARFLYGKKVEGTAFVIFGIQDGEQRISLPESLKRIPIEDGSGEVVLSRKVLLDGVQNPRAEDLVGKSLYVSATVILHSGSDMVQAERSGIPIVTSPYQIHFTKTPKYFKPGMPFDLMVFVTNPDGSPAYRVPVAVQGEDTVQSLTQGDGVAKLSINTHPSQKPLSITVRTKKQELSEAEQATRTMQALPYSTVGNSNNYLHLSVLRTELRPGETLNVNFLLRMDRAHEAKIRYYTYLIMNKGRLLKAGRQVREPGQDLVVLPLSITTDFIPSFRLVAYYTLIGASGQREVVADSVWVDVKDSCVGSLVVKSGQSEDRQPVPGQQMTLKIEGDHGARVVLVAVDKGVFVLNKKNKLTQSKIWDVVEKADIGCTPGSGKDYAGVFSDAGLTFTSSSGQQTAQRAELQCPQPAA
T4 sequence (P01024 672-1663 limits assumed, chain 2 of 2): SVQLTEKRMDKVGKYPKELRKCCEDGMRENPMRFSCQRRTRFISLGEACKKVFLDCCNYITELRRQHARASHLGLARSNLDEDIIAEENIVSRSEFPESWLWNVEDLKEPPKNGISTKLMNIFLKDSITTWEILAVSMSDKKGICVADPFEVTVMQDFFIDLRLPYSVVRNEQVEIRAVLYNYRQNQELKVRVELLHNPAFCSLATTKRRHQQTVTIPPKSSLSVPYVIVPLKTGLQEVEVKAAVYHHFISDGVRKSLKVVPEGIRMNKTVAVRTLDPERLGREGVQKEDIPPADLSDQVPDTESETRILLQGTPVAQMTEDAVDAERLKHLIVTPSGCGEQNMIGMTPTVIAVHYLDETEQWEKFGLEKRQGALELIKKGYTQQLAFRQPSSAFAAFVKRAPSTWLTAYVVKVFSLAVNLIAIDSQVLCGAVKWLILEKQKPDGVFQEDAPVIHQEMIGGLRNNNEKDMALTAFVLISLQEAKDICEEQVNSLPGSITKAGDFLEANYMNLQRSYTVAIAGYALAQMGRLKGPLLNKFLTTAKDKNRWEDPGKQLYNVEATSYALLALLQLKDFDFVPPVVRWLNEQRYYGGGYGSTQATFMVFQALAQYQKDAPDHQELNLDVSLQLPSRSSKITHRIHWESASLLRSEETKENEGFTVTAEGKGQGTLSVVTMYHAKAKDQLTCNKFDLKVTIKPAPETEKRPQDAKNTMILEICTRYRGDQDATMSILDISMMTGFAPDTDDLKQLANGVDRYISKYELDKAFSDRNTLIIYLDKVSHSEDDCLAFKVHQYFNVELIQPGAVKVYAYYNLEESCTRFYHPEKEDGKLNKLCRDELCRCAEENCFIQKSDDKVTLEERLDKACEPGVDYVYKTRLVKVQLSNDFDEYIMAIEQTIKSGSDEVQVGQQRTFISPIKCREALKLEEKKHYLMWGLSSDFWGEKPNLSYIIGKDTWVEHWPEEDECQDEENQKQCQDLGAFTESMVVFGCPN
T3 sequence (P01024 23-667 limits assumed, chain 1 of 2): as the sequence (P01024 23-667 limits assumed, chain 1 of 2) above
T3 sequence (P01024 672-1663 limits assumed, chain 2 of 2): as the sequence (P01024 672-1663 limits assumed, chain 2 of 2) above
T1 sequence (P01024 23-667 limits assumed, chain 1 of 2): as the sequence (P01024 23-667 limits assumed, chain 1 of 2) above
T1 sequence (P01024 749-1663 limits assumed, chain 2 of 2): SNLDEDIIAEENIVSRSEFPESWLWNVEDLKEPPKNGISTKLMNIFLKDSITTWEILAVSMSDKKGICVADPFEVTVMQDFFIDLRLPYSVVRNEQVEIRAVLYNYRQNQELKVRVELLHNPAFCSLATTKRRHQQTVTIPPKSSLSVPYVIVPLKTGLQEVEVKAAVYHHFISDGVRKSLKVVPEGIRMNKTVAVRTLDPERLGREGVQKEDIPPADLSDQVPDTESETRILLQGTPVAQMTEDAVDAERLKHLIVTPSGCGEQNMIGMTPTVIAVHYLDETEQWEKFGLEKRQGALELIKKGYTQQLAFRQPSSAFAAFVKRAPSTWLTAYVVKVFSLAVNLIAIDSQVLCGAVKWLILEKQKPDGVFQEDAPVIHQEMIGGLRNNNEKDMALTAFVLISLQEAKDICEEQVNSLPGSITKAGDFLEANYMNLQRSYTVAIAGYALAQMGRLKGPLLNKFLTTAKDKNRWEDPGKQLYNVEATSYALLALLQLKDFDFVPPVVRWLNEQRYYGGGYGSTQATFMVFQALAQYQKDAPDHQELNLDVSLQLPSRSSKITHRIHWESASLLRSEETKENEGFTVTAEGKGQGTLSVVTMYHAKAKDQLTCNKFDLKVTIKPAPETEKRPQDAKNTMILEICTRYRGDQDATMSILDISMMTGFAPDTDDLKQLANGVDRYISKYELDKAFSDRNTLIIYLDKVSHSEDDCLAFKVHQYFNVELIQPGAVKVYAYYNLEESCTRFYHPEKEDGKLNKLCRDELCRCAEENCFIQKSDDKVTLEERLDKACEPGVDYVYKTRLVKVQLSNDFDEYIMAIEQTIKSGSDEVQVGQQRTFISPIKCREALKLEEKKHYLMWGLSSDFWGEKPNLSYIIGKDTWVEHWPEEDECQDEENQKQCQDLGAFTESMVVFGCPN
T6 sequence (P01024 996-1303 limits assumed): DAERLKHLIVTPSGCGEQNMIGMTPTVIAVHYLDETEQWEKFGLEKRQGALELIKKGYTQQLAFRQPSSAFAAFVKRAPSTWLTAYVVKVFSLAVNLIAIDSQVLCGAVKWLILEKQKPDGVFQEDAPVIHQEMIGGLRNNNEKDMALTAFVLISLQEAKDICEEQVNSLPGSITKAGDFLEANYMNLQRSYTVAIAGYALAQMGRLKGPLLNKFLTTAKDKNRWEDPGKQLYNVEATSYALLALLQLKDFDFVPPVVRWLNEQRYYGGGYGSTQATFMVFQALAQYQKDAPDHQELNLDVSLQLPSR
His-C3d N1134A (human), sequence (P01024 996-1303, stated change not applied): as the sequence (P01024 996-1303 limits assumed) above
T2 sequence (P01024 996-1303 limits assumed): as above
T8 sequence (P01024 996-1303 L1109A limits assumed): as the sequence (P01024 996-1303 limits assumed) above, with L114A counted along it
T9 sequence (P01024 996-1303 E1110A limits assumed): as the sequence (P01024 996-1303 limits assumed) above, with E115A counted along it
T5 sequence (P01024 23-667 limits assumed, chain 1 of 3): as the sequence (P01024 23-667 limits assumed, chain 1 of 2) above
T5 sequence (P01024 749-954 limits assumed, chain 2 of 3): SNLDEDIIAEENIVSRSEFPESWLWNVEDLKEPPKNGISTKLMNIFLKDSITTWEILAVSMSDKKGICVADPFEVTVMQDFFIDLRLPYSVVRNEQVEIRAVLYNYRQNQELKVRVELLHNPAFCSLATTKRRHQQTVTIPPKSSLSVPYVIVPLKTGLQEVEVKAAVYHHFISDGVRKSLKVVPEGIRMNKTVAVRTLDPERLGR
T5 sequence (P01024 1321-1663 limits assumed, chain 3 of 3): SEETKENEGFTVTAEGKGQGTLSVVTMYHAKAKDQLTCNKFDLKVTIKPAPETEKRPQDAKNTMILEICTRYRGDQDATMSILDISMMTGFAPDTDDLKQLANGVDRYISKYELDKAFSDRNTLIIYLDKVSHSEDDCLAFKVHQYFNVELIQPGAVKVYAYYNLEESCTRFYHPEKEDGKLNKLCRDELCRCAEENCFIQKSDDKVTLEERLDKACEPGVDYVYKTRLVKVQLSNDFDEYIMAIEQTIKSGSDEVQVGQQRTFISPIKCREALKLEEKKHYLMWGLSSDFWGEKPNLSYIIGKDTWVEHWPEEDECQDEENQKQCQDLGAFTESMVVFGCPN
T7 sequence (P01024 672-748 limits assumed): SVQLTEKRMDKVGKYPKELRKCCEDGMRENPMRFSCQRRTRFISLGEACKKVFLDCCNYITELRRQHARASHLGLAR

“His-ISG65 18-363-Avi, biotinylated at the C-terminal Avi-tag (receptor)” was tested, and the Kd [1] was 28.6 nM, the ISG65 binding (%) [2] was 25% and the koff [3] was 0.0542 s⁻¹. The kon [4] was 1.89e+06 M⁻¹ s⁻¹.

B1: ISG65 M2 (thermostable mutant of the ISG65 extracellular domain 18-363 with N-terminal His-tag) (receptor)
chain: MGSSHHHHHHSSGLVPRGSHMLLVIGSEDNRVPGDKKLTKEGAAALCKMKHLADKVAKERSQELKDRTQNFAGYIEFELYRIDYWLEKLNGPKGRKDGYAKLSDSDIKKVKEIFEKAKDGITKQLPEAKKAAEEAEKLHQEVKEAAEKARGQDLDDDTAKSTGLYRVLNWYCITKEERHNATPNCDGIQFRKHYLSVNRSAIDCSSTSYEENYDWSANALQVALNSWEDKKPKKLESAGSDKNCNIGQSSESHPCTMTEEWQTHYKETIEKLRELEEAYQRGKKAHDDMLGYANTAYAVNTKVEQEKPLSEVIAAAKEAGKKGAKIIIPAAAPATPTNSTKNDDSAPTEHVDRGIATNETQVEVGID
B1 was tested, and the “relative AP50 of human plasma, day 0” value [5] was 15 fold.

B2: His-ISG65 18-363 (extracellular domain of ISG65 of Trypanosoma brucei gambiense, Tbg.972.2.1600, with N-terminal hexa-histidine tag) (receptor)
chain: MGSSHHHHHHSSGLVPRGSHMLLVIGSEDNRVPGDKKLTKEGAAALCKMKHLADKVAKERSQELKDRTQNFAGYIEFELYRIDYWLEKLNGPKGRKDGYAKLSDSDIEKVKEIFNKAKDGITKQLPEAKKAGEEAGKLHTEVKKAAENARGQDLDDDTAKSTGLYRVLNWYCITKEERHNATPNCDGIQFRKHYLSVNRSAIDCSSTSYEENYDWSANALQVALNSWEDVKPKKLESAGSDKNCNIGQSSESHPCTMTEEWQTPYKETVEKLRELEDAYQRGKKAHDAMLGYANTAYAVNTKVEQEKPLTEVIAAAKEAGKKGAKIIIPAAAPATPTNSTKNDDSAPTEHVDRGIATNETQVEVGID
notes: Expressed in E. coli T7 shuffle cells; also called ISG65 wt
B2 was tested, and the “relative AP50 of human plasma, day 0” value [5] was 6 fold, the kon [6] was 1e+06 M⁻¹ s⁻¹ and the Kd [7] was 27.9 nM. The koff [8] was 0.04 s⁻¹.

B3: His-ISG65 18-363-Avi, biotinylated at the C-terminal Avi-tag (receptor)
chain: B2 chain
modifications: site-specific biotinylation of the C-terminal Avi-tag
notes: SPR ligand captured on a Series S sensor chip CAP; also called ISG65-Avi; biotinylated ISG65; not shown: C-terminal Avi-tag
For B3, the koff [9] was 0.0543 s⁻¹, the Kd [10] was 18 nM and the binding result [11] was “no binding (tested: 280 nM)”. The koff [12] was 0.0212 s⁻¹, the kon [13] was 5.24e+06 M⁻¹ s⁻¹ and the koff [14] was 0.017 s⁻¹. The Kd [15] was 80.9 nM, the kon [16] was 81800 M⁻¹ s⁻¹ and the Kd [17] was 129 nM. The koff [18] was 0.0379 s⁻¹, the Kd [19] was 18100 nM and the kon [20] was 262000 M⁻¹ s⁻¹. The Kd [21] was 52.9 nM, the kon [22] was 942000 M⁻¹ s⁻¹ and the “ISG65 binding (%)” value [23] was 45%. The “ISG65 binding (%)” value [24] was 8%, the “ISG65 binding (%)” value [25] was 100% and the Kd [26] was 7.2 nM.

B4: His-ISG65 18-363 T297A (receptor)
chain: B2 chain with T301A
notes: also called ISG65 T297A
In the case of B4, the koff [27] is reported as 0.05 s⁻¹, the Kd [28] is reported as 182 nM and the koff2 [28] is reported as 0.002 s⁻¹. For the same molecule, the kon [29] was 171000 M⁻¹ s⁻¹ and the “C3d binding (%)” value [30] was 15%.

B5: His-ISG65 18-363 Y70A (receptor)
chain: B2 chain with Y74A
notes: also called ISG65 Y70A
For B5, the Kd [31] was 78.2 nM, the koff2 [28] was 0.58 s⁻¹ and the “C3d binding (%)” value [30] was 36%. The kon [32] was 118000 M⁻¹ s⁻¹ and the koff [33] was 0.14 s⁻¹.

B6: His-ISG65 18-363 W211A (receptor)
chain: B2 chain with W215A
notes: also called ISG65 W211A
With B6 the Kd [31] was 66.8 nM, the koff2 [28] was 0.39 s⁻¹ and the “C3d binding (%)” value [30] was 42%. It also gave a kon [32] of 320000 M⁻¹ s⁻¹ and a koff [33] of 0.16 s⁻¹.
